Reference: article PMC9122594
Read-outs that look alike come from different tables or passages of the source.

T1: MbpAgo WT (Mucilaginibacter paludis, UniProt H1YCU5 1-795)
T1 sequence: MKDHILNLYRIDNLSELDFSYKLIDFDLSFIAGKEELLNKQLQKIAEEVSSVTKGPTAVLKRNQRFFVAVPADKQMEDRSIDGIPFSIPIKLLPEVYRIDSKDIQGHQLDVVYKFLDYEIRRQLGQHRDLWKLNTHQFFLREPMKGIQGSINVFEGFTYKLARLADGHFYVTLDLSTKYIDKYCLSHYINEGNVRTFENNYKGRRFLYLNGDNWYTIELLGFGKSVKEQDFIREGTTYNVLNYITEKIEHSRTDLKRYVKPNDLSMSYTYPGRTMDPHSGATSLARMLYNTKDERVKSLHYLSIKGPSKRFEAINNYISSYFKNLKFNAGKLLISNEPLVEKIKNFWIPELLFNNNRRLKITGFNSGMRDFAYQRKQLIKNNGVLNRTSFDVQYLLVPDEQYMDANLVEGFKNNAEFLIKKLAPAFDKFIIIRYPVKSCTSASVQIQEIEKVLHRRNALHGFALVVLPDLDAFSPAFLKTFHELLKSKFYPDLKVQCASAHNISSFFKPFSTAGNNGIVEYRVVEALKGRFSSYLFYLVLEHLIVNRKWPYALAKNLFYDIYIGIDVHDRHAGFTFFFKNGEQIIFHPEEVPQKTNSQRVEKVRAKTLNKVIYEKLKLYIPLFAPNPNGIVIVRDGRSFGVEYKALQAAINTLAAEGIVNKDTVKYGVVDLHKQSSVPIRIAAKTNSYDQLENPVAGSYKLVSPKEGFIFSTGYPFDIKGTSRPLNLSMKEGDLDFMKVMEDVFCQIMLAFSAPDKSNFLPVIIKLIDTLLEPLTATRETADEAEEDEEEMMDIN

B1: T-gDNA iFAM, 5'OH (ssDNA)
DNA: TGAGGTAGTAGGTTGT
B2: T-gDNA iFAM, 5'P (ssDNA)
DNA: TGAGGTAGTAGGTTGT
modifications: 5' phosphate

How the values were obtained:
MbpAgo WT [1] = molecular target: T1, MbpAgo WT; test: EMSA
MbpAgo WT [2] = molecular target: T1, MbpAgo WT; test: EMSA; remark: listed apart in the source

Binder | Kd (MbpAgo WT [1]) [nM] | Kd (MbpAgo WT [2]) [nM]
B1 | 148 ± 5.8 | 162 ± 4.8
B2 | 111 ± 3 | 205 ± 7.6
